Test results published in paper PMC2771690 (Molecular cell, 2009).

Target: T1, proliferating cell nuclear antigen (PCNA), yeast (yeast, UniProt P15873 1-258)
T1 sequence (looked up): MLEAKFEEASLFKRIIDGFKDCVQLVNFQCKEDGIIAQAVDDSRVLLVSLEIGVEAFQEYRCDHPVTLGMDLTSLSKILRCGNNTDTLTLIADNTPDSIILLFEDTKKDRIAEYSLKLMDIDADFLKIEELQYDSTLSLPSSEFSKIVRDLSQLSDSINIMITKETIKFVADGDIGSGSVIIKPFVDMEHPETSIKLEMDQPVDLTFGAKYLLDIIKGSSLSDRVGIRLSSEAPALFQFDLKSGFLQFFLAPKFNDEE
Assay: pull-down

B1: GST-PINIT (Siz1 aa 172-315 as a C-terminal fusion to GST), wild-type (domain or fragment, S. cerevisiae, UniProt Q04195 172-315, looked up)
chain: VPTIHFKESPFYKIQRLIPELVMNVEVTGGRGMCSAKFKLSKADYNLLSNPNSKHRLYLFSGMINPLGSRGNEPIQFPFPNELRCNNVQIKDNIRGFKSKPGTAKPADLTPHLKPYTQQNNVELIYAFTTKEYKLFGYIVEMIT
B1: binds.
